Data on 25 molecules can be found in US7378498B2, “Protein encoded by a nucleic acid” (The Johns Hopkins University School of Medicine, priority 1998, dated 2008).

Positions count from the first letter of the chain named. Numbers in names are those of the source.

B1: F7R: point mutant of the Homer EVH1 domain (protein)
chain: MGEQPIRSTRAHVFQIDPNTKKNWVPTSKHAVTVSYFYDSTRNVYRIISLDGSKAIINSTITPNMTFTKTSQKFGQWADSRANTVYGLGFSSEHHLSKFAEKFQEFKEAARLAKEKSQEK
modifications: left off: small tags and cut ends
notes: point mutant of the Homer EVH1 domain
B2: S8L: point mutant of the Homer EVH1 domain (protein)
chain: B1 chain with R7F, S8L
modifications: left off: small tags and cut ends
notes: as for B1
B3: V34M: point mutant of the Homer EVH1 domain (protein)
chain: B1 chain with R7F, V34M
modifications: left off: small tags and cut ends
notes: as for B1
B4: R42A: point mutant of the Homer EVH1 domain (protein)
chain: B1 chain with R7F, R42A
modifications: left off: small tags and cut ends
notes: as for B1
B5: F74L: point mutant of the Homer EVH1 domain (protein)
chain: B1 chain with R7F, F74L
modifications: left off: small tags and cut ends
notes: as for B1
B6: H95A: point mutant of the Homer EVH1 domain (protein)
chain: B1 chain with R7F, H95A
modifications: left off: small tags and cut ends
notes: as for B1
B7: S35V: point mutant of the Homer EVH1 domain (protein)
chain: B1 chain with R7F, S35V
modifications: left off: small tags and cut ends
notes: as for B1
B8: L96S: point mutant of the Homer EVH1 domain (protein)
chain: B1 chain with R7F, L96S
modifications: left off: small tags and cut ends
notes: as for B1
B9: F74A: point mutant of the Homer EVH1 domain (protein)
chain: B1 chain with R7F, F74A
modifications: left off: small tags and cut ends
notes: as for B1
B10: I48A: point mutant of the Homer EVH1 domain (protein)
chain: B1 chain with R7F, I48A
modifications: left off: small tags and cut ends
notes: as for B1
B11: K69A: point mutant of the Homer EVH1 domain (protein)
chain: B1 chain with R7F, K69A
modifications: left off: small tags and cut ends
notes: as for B1
B12: Q72A: point mutant of the Homer EVH1 domain (protein)
chain: B1 chain with R7F, Q72A
modifications: left off: small tags and cut ends
notes: as for B1
B13: N58A: point mutant of the Homer EVH1 domain (protein)
chain: B1 chain with R7F, N58A
modifications: left off: small tags and cut ends
notes: as for B1
B14: D39A: point mutant of the Homer EVH1 domain (protein)
chain: B1 chain with R7F, D39A
modifications: left off: small tags and cut ends
notes: as for B1
B15: R46A: point mutant of the Homer EVH1 domain (protein)
chain: B1 chain with R7F, R46A
modifications: left off: small tags and cut ends
notes: as for B1
B16: S28A: point mutant of the Homer EVH1 domain (protein)
chain: B1 chain with R7F, S28A
modifications: left off: small tags and cut ends
notes: as for B1
B17: N23A: point mutant of the Homer EVH1 domain (protein)
chain: B1 chain with R7F, N23A
modifications: left off: small tags and cut ends
notes: as for B1
B18: N64G: point mutant of the Homer EVH1 domain (protein)
chain: B1 chain with R7F, N64G
modifications: left off: small tags and cut ends
notes: as for B1
B19: R46C: point mutant of the Homer EVH1 domain (protein)
chain: B1 chain with R7F, R46C
modifications: left off: small tags and cut ends
notes: as for B1
B20: F67S: point mutant of the Homer EVH1 domain (protein)
chain: B1 chain with R7F, F67S
modifications: left off: small tags and cut ends
notes: as for B1
B21: E93K: point mutant of the Homer EVH1 domain (protein)
chain: B1 chain with R7F, E93K
modifications: left off: small tags and cut ends
notes: as for B1
B22: F90S: point mutant of the Homer EVH1 domain (protein)
chain: B1 chain with R7F, F90S
modifications: left off: small tags and cut ends
notes: as for B1
B23: R42E: point mutant of the Homer EVH1 domain (protein)
chain: B1 chain with R7F, R42E
modifications: left off: small tags and cut ends
notes: as for B1

One assay relates to GST-mGluR5 or GST-Shank3 (residues 1143-1408). Briefly: GST pull-down binding of Homer EVH1 point mutants. Also noted: key: wild-type (+); (−) indicates substantially reduced binding relative to wild-type (+). The conditions noted are these: GST pull-down of myc-tagged mutants from HEK293 lysates, relative to wild-type.
B1: the Binding result was “+”.

Turning to B2, the Binding result is “−”.

Turning to B3, the Binding entry is given as “+”.

B4: the Binding entry is recorded as “+”.

In the case of B5, the Binding result is given as “+”.

With B6, the Binding entry was “+”.

As for B7, the Binding result is reported as “+”.

With B8, the Binding entry was “+”.

Take B9: the Binding entry is given as “+”.

With B10, the Binding result is “+”.

With B11, the Binding entry is “+”.

As for B12, the Binding result is “+”.

In the case of B13, the Binding entry was “+”.

In the case of B14, the Binding result is reported as “−”.

Regarding B15, the Binding entry was “−”.

B16: the Binding entry is “−”.

On to B17, for which the Binding result is recorded as “+”.

Turning to B18, the Binding result is “+”.

As to B19, the Binding entry is recorded as “+”.

For B20, the Binding entry is “−”.

With B21, the Binding result is listed as “+”.

Regarding B22, the Binding entry is “+”.

In the case of B23, the Binding result is “−”.

A further assay relates to mGluR-evoked Ca^+2 responses in Purkinje cells. Put plainly: Fura-2 ratio imaging of quisqualate-evoked Ca2+ mobilization in transfected cerebellar Purkinje cells. Format: cell-based, mouse. The conditions noted are these: 1 TM in the internal saline. The source says: The truncated Homer protein used lacks the coiled-coil domain and is unable to form a bridge linking the mGluR at the cell surface with intracellular inositol trisphosphate receptors. The truncated form of Homer protein resembled Homer 1a with the exception of 11 residues at the carboxy-terminal. This form of Homer results in enhanced expression of Homer protein as compared with transfection of Homer 1a in heterologous cells. The Homer protein was introduced into Purkinje cells in primary cerebellar cultures and glutamate induced effects on calcium mobilization was measured.
Embryonic mouse cerebellar cultures were prepared and maintained according to the method of Schilling et al. (Schilling et al., Neuron 7:891 1991). At 4-5 DIV, cultures were transfected with plasmids coding for E-GFP (Clontech) and either full-length Homer 1b or an IEG form of Homer 1. The IEG form of Homer 1 was a 186 amino acid amino-terminal fragment of Homer 1b. Plasmids were purified by cesium banding. Three combinations of the plasmids were transfected. Group I (control), 20 Tg of E-GFP and 40 Tg of pRK5 vector; group II, 20 Tg of E-GFP and 40 Tg of pRK5 Homer 1 IEG; group III: 20 Tg of E-GFP and 40 Tg of pRK5 Homer 1b. Plasmid DNA was mixed with gold particles (0.6 micron), and coated onto plastic tubing. DNA was then ballistically transfected into cells according to the manufacturer's protocol (Helios Gene Gun System, BIO-RAD). After transfection, cultures were returned to the incubator and maintained for an additional […] for a total of 7-8 DIV at the time of use for imaging experiments.
Patch electrodes were attached to the somata of GFP-expressing Purkinje cells and a holding potential of −60 mV was applied. Micropressure electrodes (1 Tm tip diameter) were filled with quisqualate (100 Tm in external saline) and were positioned ˜20 Tm away from large-caliber dendrites. Test pulses were delivered using positive pressure (6 psi, 1 sec). Cells were bathed in a solution that contained (in mM) NaCl (140), KCl (5), EGTA (0.2), MgCl2 (0.8), HEPES (10), glucose (10), tetrodotoxin (0.005), and picrotoxin (0.1), adjusted to pH 7.35 with NaOH, which flowed at a rate of 0.5 ml/m The recording electrode contained CsCl (135), HEPES (10), fura-2 K5 salt (0.2), and Na2-ATP (4), adjusted to pH 7.35 with CSOH. Patch electrodes yielded a resistance of 3-5 MA when measured with the internal and external salines described above.
Fura-2 ratio imaging of intracellular free Ca^2+, was accomplished by measuring the background corrected fluorescence ratio at 340 and 380 nm excitation using a cooled CCD camera system, as previously described (Linden et al., J Neurosci 15:5098 1995). Exposure times were 200 msec per single wavelength image. Experiments were conducted at room temperature. Enhanced GFP is weakly excited by illumination in the 380-400 nm spectrum. Based upon the bandpass characteristics of our 340HT15 and 380HT10 excitation filters and the absorption spectrum of enhanced GFP (Clontech), we estimate that <1% of the signal at 340 nm excitation and <5% of the signal at 380 nm excitation is contributed by GFP, even in those cells where the fura/GFP loading ratio is smallest. This could lead to a small (<5%) systemic underestimation of free calcium concentration that should distribute randomly across experimental groups.
Calcium mobilization in the absence of influx was measure by ratio imaging fura-2 in Purkinje cells bathed in Ca^+2-free external saline and stimulated with a micropressure pulse of quisqualate, a metabotropic glutamate receptor agonist (Linden, Neuron 17:483 1996). […] The decay phase of the Ca^+2 response appeared somewhat slower in neurons transfected with the truncated form. […]
Background: Calcium assays in cells follow changes in intracellular calcium, usually with a dye or a luminescent sensor.
As for `C1CCC[C@H]2CCCN3CC[C@@H](CCCCCC[C@@H]4CCCN5CC[C@@H](CC1)O[C@@H]45)O[C@@H]23` [xestospongin C, reference compound], the “block of quisqualate-evoked Ca^+2 transient” value was “completely blocked”.

Still in this assay, the particulars now being: 500 TM in the bath.
In the case of `CC(N)(C(=O)O)c1ccc(C(=O)O)cc1` (single isomer, unassigned; (+)) [(+)-MCPG, reference compound], the “block of quisqualate-evoked Ca^+2 transient” value is listed as “completely blocked”.
